Experimental data as given in paper PMC12432433.

Experiments:
[1] = biological target: LbXyn43B/Thr274Ala (Levilactobacillus brevis DSM 1269); assay: SEC; Sephacryl S-300 (110 mL), 0.1 mL/min, 50 mM sodium phosphate, 150 mM NaCl, pH 7.0; calibrated with molecular weight standards of 20-700 kDa; apparent molecular mass
[2] = biological target: LbXyn43B/Thr274Ala (Levilactobacillus brevis DSM 1269); assay: SEC-MALS; OMNISEC multi-detection SEC: Superdex 200 Increase 10/300 GL, light scattering (RALS 90°, LALS 7°), refractive index, viscometer, UV/VIS; 50 µL of 4.5 mg/mL injected in triplicate; 50 mM sodium phosphate, pH 7, 150 mM NaCl; 0.5 mL/min
[3] = biological target: β-D-xylosidase LbXyn43B from Levilactobacillus brevis DSM1269 (Levilactobacillus brevis DSM 1269); assay: crystal structure; X-ray, 1.9 Å, space group P 1 21 1, four chains (A-D); crystals from 27-29% PEG 1500, 60-140 mM malonate-imidazole-borate buffer, pH 4.0-4.5, 4°C
[4] = biological target: β-D-xylosidase LbXyn43B from Levilactobacillus brevis DSM1269 (Levilactobacillus brevis DSM 1269); assay: SEC; Sephacryl S-300 (110 mL), 0.1 mL/min, 50 mM sodium phosphate, 150 mM NaCl, pH 7.0; calibrated with molecular weight standards of 20-700 kDa; apparent molecular mass
[5] = biological target: β-D-xylosidase LbXyn43B from Levilactobacillus brevis DSM1269 (Levilactobacillus brevis DSM 1269); assay: SEC-MALS; OMNISEC multi-detection SEC: Superdex 200 Increase 10/300 GL, light scattering (RALS 90°, LALS 7°), refractive index, viscometer, UV/VIS; 50 µL of 4.5 mg/mL injected in triplicate; 50 mM sodium phosphate, pH 7, 150 mM NaCl; 0.5 mL/min

stoichiometry N [1]	fraction of sample in peak 1 (tetramer) [2]	stoichiometry N [2]	stoichiometry N [3]	stoichiometry N [4]	fraction of sample in peak 1 (tetramer) [5]	stoichiometry N [5]	Substance
3	91.3%	4					LbXyn43B/Thr274Ala (enzyme)
			4	4	84.9%	4	β-D-xylosidase LbXyn43B from Levilactobacillus brevis DSM1269 (enzyme)
